Consider 28 sequences from the domain aggregation screens of Martell et al. (2025).

The data set in a line: soluble fraction after stress (log2 fold change); higher = more stays soluble; pooled small domains, quantitative proteomics. To be noted: stress: 50 degC. A digest of the protocol: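 Custom libraries of small protein domains were pooled and measured in a high-throughput format, with quantitative proteomics as the read-out. Each library was stressed at 50°C. The value is the log2 fold change in the amount of each protein that stays soluble after stress, used as a measure of aggregation propensity; higher values mean more of the protein stays soluble.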
For the sequence “HMAAADLNMRAKLADLGGMSYGELSIWEKTHGMEFAAWEHEWEKLNSGTQADGLKFPKHLPEGFPT”, the “soluble fraction (log2)” value is 0.0468.

For the sequence “HMAAAKDVMDWQNAIRGLTDAKGKPYSPTYLKTVHNQLSALFNHAVRYYGLQVNPAAKAGNMGVEE”, the “soluble fraction (log2)” value is -0.0939.

Turning to “HMAADDGSARAEQLREMYSLISGLDKLDKAIILMWLDERSYDEIAEVTGFTRNNVATRLHRIKSRLARQSN”, the “soluble fraction (log2)” value is -0.783.

In the case of “HMAAEIGSGVVDAYDLRLRSQPSTDAETIIYLDNGAKLSVQEDLGDWYKVVSGTYTGYVSAEYVAYTPSPE”, the “soluble fraction (log2)” value was -1.13.

For “HMAAELHPYGADSYRGDNPPAGYEIKAKEESKKFHTPSSPWYGRTIAEIWFRTEEAAEAAGFINAVK”, the “soluble fraction (log2)” value is -0.23.

As for “HMAAELQALSVRELEVLDQLAGGASNREIAQRLYISENTVRNHVHSILTKLKLQNRTQLVGMT”, the “soluble fraction (log2)” value was -0.239.

For “HMAAESWTEKSRALAAAGLVVMGRDAQTKIEELTNLAPLIEAANASNTRLLTSQSIDELLSIVPTEENL”, the “soluble fraction (log2)” value is 0.0724.

As for “HMAAGKGVTTGSVRLRKGSNTDSAIIATLKKDTELILYGKKDGWYSVKTSDGTEGFVSSKYVKVTEAY”, the “soluble fraction (log2)” value stood at 0.313.

Take “HMAAGLTPKQKAFADNYIKNGGNAAEAARAAGYSLKNVGANAGKLLKNPKIAAYIAEKQAELDRRNGT”: the “soluble fraction (log2)” value was 0.155.

On to “HMAAINPSALREPATPPEQLSAGDSVLHPRFGRGEILELQQQGGDPRAIVQFINEPKPRTLVLRYAQLRK”, for which the “soluble fraction (log2)” value was -0.049.

As to “HMAAKADAVKKAIAAIGKVDASEDSKAKVEAARKAYAALTEDQKKLVEASQLKLLTEAEAAYQQAVEESKK”, the “soluble fraction (log2)” value turned out to be 0.0525.

“HMAAMSLGERIGAHRKRMGISQEELGHRMGVSRQAVSKWETGRAVPDMENLLALARLFGVPVSELAD”: the “soluble fraction (log2)” value is -0.177.

Regarding “HMAAPVGLTQRQMEVAALVADGLTNAEIGRRLHITERSAESHLERVRIRLGFRSRAQVAAWFVTQE”, the “soluble fraction (log2)” value was -3.5.

On to “HMAATHYEGIKQDGETDDAVIERVLTGLSVTANKDDIFIVKTLIAGTKYSYTAYVYNGNAWAAM”, for which the “soluble fraction (log2)” value stood at 0.0325.

On to “HMAATSTGFPGVEVRGNSIRVFFMYKRDRHAHTLPLEPTRNNIKHADQLRSAALFALRNGTYNEADFFPHS”, for which the “soluble fraction (log2)” value is -1.53.

As for “HMAATVKVPDLTKMTPDEAQRALGQVGLKGKQGDDVDDDSVPVGYIAKQDEAPNSDAKAGDTITYHL”, the “soluble fraction (log2)” value is 0.16.

On to “HMAAVSSHAVKQRIRSLIQAEDPASPLSDEALRLALSALGVEVSRRAVAKYRTSMDIPASSQRKK”, for which the “soluble fraction (log2)” value was -0.252.

For the sequence “HMADEDTILALAKEILASWPDKVEAYKNGNKGMLGLFMGELMKKSGGKANPKSASALIQKLLE”, the “soluble fraction (log2)” value is -0.0387.

Consider “HMADEIQLVVQVNGKLRGRIMVAPDASREEIEKTALADADVSRFLGDTPVKKVIIVPKRLVNIVAPAPK”, for which the “soluble fraction (log2)” value is -0.0114.

Take “HMADENIELRKAGLKVTLPRVKILQILEAAKEPHMSAEDVYKALMEANEEVGLATVYRVLTQFESAGL”: the “soluble fraction (log2)” value was -0.267.

Consider “HMADGKWTLTDAGYTFTYSDGRKARGTWEDIDGEWYHFDRNGIMETGWKTVGNIRYHFNQDGSL”, for which the “soluble fraction (log2)” value was -0.185.

Regarding “HMADIGRMKELIDILNRASAVYYQGKDEIMSNFEYDKLYDELVSLEKESGLVLAGSPTQKVGY”, the “soluble fraction (log2)” value is 0.153.

As to “HMADKHVAAALLKLMDHLVGGRQYAFMKGRLTINKKVVLEATEVSAYRRGTGLSDADWQQRYE”, the “soluble fraction (log2)” value was -1.97.

Turning to “HMADLKRLNEQIHYLGQYLSTKATYKEFLQANNKKIYRSEHQDEIAKYEEAAQFLKRSSPDGTIPTMKDLR”, the “soluble fraction (log2)” value was -0.0887.

Take “HMADLSAYAGKEGMTDSVLRPSGKVDIEGHILDAVSRGDFIEKGKRVIVIKAEGSYLVVKKRMP”: the “soluble fraction (log2)” value was -0.175.

As to “HMADLTEEQKTLFRLIRDLQPVSSKTLLENSGFTRSTQTRLLNGLIEKQIVIRTGNGPATRYSLR”, the “soluble fraction (log2)” value was -0.246.

Take “HMADLTIDGVEYTKVSPTGTLTLEKVYTKNVTPADGQYYIQTGTKTVRVATDAEVAVIKAGGF”: the “soluble fraction (log2)” value came to 0.0157.

On to “HMADNKDMQAAFMEALNGLKEYAKVNGNIVTKEDVNSYFKDMHLDDNKYSMITGYLMANGITIKG”, for which the “soluble fraction (log2)” value worked out at 0.23.
